Results: publication PMC4941208 (Journal of the American Chemical Society, 2015)
No end group written: not given here. *: point of attachment. GlcN = OC[C@H]1OC(O)[C@H](N*)[C@@H](O)[C@@H]1O; Acetyl(2-naphthyl) = O=C(Cc1ccc2ccccc2c1)*

T1: P-1 (Nap-FF-LGFNI, heptapeptide derivative)
T1 sequence (peptide, 2-(naphthalen-2-yl)acetic group (Nap) on the N-terminus): FFLGFNI


Key:
[1] = TEM of hydrogel and solutions; assay type: physicochemical; details: solution at 16.6 mM
hydrogel of P-1 = experiment: Gel-sol transition and rheology; assay type: physicochemical; details: 7 days
proteinase K = proteinase K (Parengyodontium album, UniProt P06873); assay type: in vitro ADME; details: 37 °C, 24 h
proteinase K, sequence (P06873 106-384): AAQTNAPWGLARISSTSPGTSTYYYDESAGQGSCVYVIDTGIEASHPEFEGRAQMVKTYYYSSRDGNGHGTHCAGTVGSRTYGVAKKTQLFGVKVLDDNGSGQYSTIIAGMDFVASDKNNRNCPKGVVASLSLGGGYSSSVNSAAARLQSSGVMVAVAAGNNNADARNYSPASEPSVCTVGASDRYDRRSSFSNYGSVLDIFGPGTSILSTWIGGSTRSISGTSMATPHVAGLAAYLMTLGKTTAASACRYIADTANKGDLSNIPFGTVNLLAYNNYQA

[2] = biological target: T1, P-1 (Nap-FF-LGFNI, heptapeptide derivative); experiment: ITC
hydrogelation + TEM = biological target: the molecule itself; experiment: hydrogelation + TEM

Row | Molecule | Kd [2] [µM] | dH [2] [kJ/mol] | stoichiometry N [2] | also measured
1 | GP-2: Glycoconjugate of nucleobase, peptide, saccharide: thymine at N-terminal and glucosamine at C-terminal of TTPV (thymine-TTPV-GlcN) | – | – | – | nanostructures in TEM images of the solution [1]: hardly any ordered nanostructures; G' times smaller than that of hydrogel of P-1 (hydrogel of P-1; 4 equiv of compound): about 300 times; Max G' of P-1 after addition of 4 equiv of compound (hydrogel of P-1; hydrogel of P-1 622 μM, pH 6.4, 300 μL + 50 μL 15 mM compound (4:1)): 0.06 Pa; Hydrogelator P-1 remaining in mixture with 1 equiv of compound (proteinase K; hydrogel of P-1 + compound 1:1, proteinase K 3.2 U/mL): 45.0 ± 0.4%; Hydrogelator P-1 remaining in mixture with 4 equiv of compound (proteinase K; hydrogel of P-1 + compound 4:1, proteinase K 3.2 U/mL): 24.2 ± 2.0%
2 | thymine-TTPV-GlcN [GP-2 (thymine-TTPV-glucosamine, conjugate of nucleobase, peptide and saccharide)] | 262 | -17.2 | 1.04 | –
3 | thymine-TTPV [P-3 (thymine-TTPV, non-glycosylated control of GP-2)] | 235 | -13.1 | 1.38 | –
4 | {Acetyl(2-naphthyl)}-FFLGFNI [P-1 (Nap-FF-LGFNI, heptapeptide derivative)] | – | – | – | binding result (hydrogelation + TEM): binds
